According to patent publication US11045520B2, “Compositions and methods for topical delivery of pharmaceutical agents” (priority 2016, dated 2021):

Key:
[1] = system: human skin explants or xenograted human skin; assay: Confocal imaging of fluorescent dye distribution in ETA-desquamated skin (Example 2); details: for skin permeability after removal of S.C. by ETA: ETA 100 μg/mL treated vs untreated skin
Method: Human skin samples were fixed in 10% formaldehyde overnight and then embedded in paraffin. Samples were cut using a microtome to a thickness of 6 μM and baked on slides for 1 hour in a dry heat incubator at 58° C. Nuclei and eosinophillic structures were visualized by hematoxylin and eosin staining, respectively. The hematoxylin stains nuclei blue and eosins stains eosinophillic structures different shades of red. Histological images were taken with an inverted microscope.
The skin was either subjected to no treatment or application of ETA at 100 μg/mL.
To image the distribution of each dye in the human skin, human skin specimens were collected at 6, 12, 18 and 24 hours. Ordinary skin with intact S.C. and desquamated skin using ETA (methods previously described) were used. Frozen sections of human skin specimens were cut using a microtome to a thickness of 7 μM and DAPI was used for counter staining. Skin imaging was carried out at room temperature using Nikon confocal microscope equipped with NIS-Elements AR 3.10 software.

[2] = system: human skin explants; details: cited from earlier work
[3] = system: human skin; assay: Franz cell diffusion apparatus assay, ETA-treated vs control skin (Example 3); format: in vitro ADME; details: ETA-treated human skin compared to non-treated control, 24 hours
Method: Permeation experiments with Franz diffusion cells were performed using human skin. The Franz diffusion cells were made of glass with a contact area of 1.35 cm^2, consisting of a donor compartment and a receptor compartment. The skin was mounted between the cell compartments and 2 O-ring shaped glasses were used to position the skin epidermis side-up and dermis side-down. The two cell compartments were held together with a clamp. […] It was kept at 37° C. on a heated plate. After 30 minutes of equilibration of the skin with the receptor solution, 200 μl of the drug solution was applied in the donor compartment with a pipet. The donor compartment was then covered with parafilm to prevent evaporation of the solvent. The receptor solution was continuously stirred using a spinning bar magnet at 200 rpm. Receptor solution samples, 0.2 ml aliquots, were withdrawn through the sampling port of the receptor compartment at various time intervals. The cells were refilled with a same amount of receptor solution to keep the volume of receptor solution constant during the experiment. The experiments were run for 24 hours. The fluorescent intensities collected from receptor compartments from normal and desquamated skin were compared over time using a spectrophotometer. […]

[4] = system: skin epidermis and dermis; assay: Removal of S.C. by various methods and possible damage (FIG. 12)
Text: FIGS. 12A (panel a-d) and 12B depict removal of S.C. by various methods and possible damage. […] Even more damage to the dermis and epidermis are seen in skin treated by dermabrasion (panel d). In FIG. 12A, single headed arrow points to the epidermis and double headed arrows show clefting between epidermis and dermis.
Fractional laser treatment lead to unavoidable heat damage on the side of the holds that each radiated beam made.

[5] = system: Stratum Corneum, human skin explant model; assay: ETA desquamation after acetone and/or thioglycolate cream pre-treatment (Example 4)
Text: FIG. 7 panels a-d depict decreased desquamation time for the removal of S.C. by ETA on the human skin specimen(s) following thioglycolate cream pre-treatment. Samples either received no treatment (panel a), ETA only (panel b), treated with thioglycolate cream only (panel c), ETA and thioglycolate cream (panel d). The depictions are of live confocal imaging of skin. Images are focusing on the horizontal plane at the most superficial levels. Lighter areas depict areas where DAPI dye has entered the epidermis and staining on the Nuclei of the cells. […] Natural folds in skin surface produce “waves” of staining in these planar-focused live images. The waves of staining are seen in panel b, with about 20%-30% of the area stained, and about 90%-95% of the area stained in panel d (“unstained” regions in panel d are skin folds). However when S.C. is present (panels a and c), DAPI cannot penetrate cells, and is shielded from cellular uptake by the S.C., staining is seen to be less than about 10% in panels a and c.
In order to decrease the incubation time of ETA, the following conditions were additionally evaluated:
Studies were carried out in a human skin explant model using surgical abdominal skin specimens.
Lipid Extraction: The S.C. layer consists of lipids and therefore, acetone was selected as a pre-treatment to dissolve or at least disrupt the lipid structure of the S.C.
Protein Denaturation: The S.C. layer also contains keratin proteins. Keratins can be broken down by thioglycolate, which breaks down rigid disulfide bonds. Samples were pre-treated with thioglycolate cream to break down the keratin layer of the S.C. As a result, the incubation time of ETA was shortened (FIG. 7).
Combination Lipid Extraction and Protein Denaturation: With the pre-treatment of acetone and a thioglycolate cream, separation of S.C. started as early as 2 to 2.5 hours.

[6] = system: xenograft human skin in SCID mice; assay: Recovery of S.C. after ETA, serial confocal DAPI staining; format: in vivo
Text: FIG. 11 panels a-i depict DAPI staining on nuclei in an S.C. removed area compared to control (intact S.C.), highlighting the recovery of the S.C. layer over time after the application of ETA on human xenografted skin on mice. […] Day 7-9 and 10-11 (panels e, f) show even less nuclei.
Regarding healing kinetics, using a xenograft human skin in SCID mice model, the healing of removed S.C. was completed within 2 weeks as determined by serial confocal observation of DAPI staining on xenograft skin. With confocal microscope and DAPI staining, the recovery of the S.C. can be observed, as described. DAPI is known to be a fluorescent stain that can pass through the cell membrane and bind strongly to A-T rich regions in DNA, thereby staining the nuclei of cells. With intact S.C., the signal from DAPI cannot be detected by confocal microscope due to the refraction of light against the S.C. as well as the limitation of the depth of light penetration. On the other hand, desquamated skin can produce DAPI signals within cells. DAPI can stain the nuclei of epidermis as long as epidermis remains desquamated. Under inhalation anesthesia, xenografted mouse was taped down on the observatory plates and the xenografted skin was imaged using confocal microscopy. DAPI signal was obtained at baseline and every other day after ETA-mediated desquamation occurred.

[7] = system: human skin explants; assay: Injected versus topically applied ETA, damage after 24 hours (Example 6)
Method: FIG. 10 panels a-h depict the effect of injected and topically applied ETA in a series of concentrations between 5 and 1000 ug/mL after 24 hours.
Damage caused by intra-dermal injection of ETA was compared to normal control skin and topically applied ETA control. A very high concentration of ETA (500 μg/mL) was intra-dermally injected into human skin explants (prepared as described in Example 1) and observed after 24 hours. […] In contrast, methods of the invention topically apply ETA only to the outside surface of skin.

[8] = system: Stratum Corneum of human skin explants; assay: ETA desquamation of Stratum Corneum on human skin explants, H&E histology (Example 1)
Method: ETA was mixed with 10 mM PIPES at pH 6.5, 10 mM HEPES at pH 7.4, or 10 mM Tris at pH 8.0, at concentrations ranging from 25-1000 μg/mL. Each condition was also done separately as controls. These solutions were applied to human skin explants, obtained and prepared as follows. Human skin specimens were obtained from consenting patients undergoing abdominoplasty. Under a sterile condition, the tissue was placed and washed in a 70% ethanol solution and cold PBS. Fat layers were removed from the tissue, leaving a millimeter of dermis and an intact epidermis. The tissue was then cut into 10 mm×10 mm pieces and placed on gels composed of keratinocyte media supplemented with Human Keratinocyte Growth Supplement purchased from Invitrogen, and mixed in a 1:1 ratio with 2% agarose. The samples were stored at 37° C. in 5% CO2.
ETA solutions were incubated on top of the skin for 4 hours. Each buffer condition was also done separately without the presence of ETA as controls. […] That is to say, Stratum Corneum layer was peeled off mechanically with sterile gauze.
Histological images were taken with an inverted microscope.

[9] = intra-dermally injected, ETA 500 μg/mL, 24 hours

CCNc1cc2[s+]c3cc(N(CC)CC)ccc3nc2c2ccccc12.[Cl-] [EtNBS]
skin permeability after removal of S.C. by ETA [1]: substantially increased | penetration of the dye at 12 hours ([1]; toxin treated skin): penetrating past the epidermis | penetration of the dye at 24 hours ([1]; toxin treated skin): penetrated further

C=C[C@@]1(C)CC(=O)[C@]2(O)[C@@]3(C)[C@@H](O)CCC(C)(C)[C@@H]3[C@H](O)[C@H](OC(C)=O)[C@@]2(C)O1 [Forskolin]
penetration of intact human skin [2]: cannot, however, penetrate intact human skin

CCN(CC)c1ccc2c(-c3ccc(S(=O)(=O)O)cc3S(=O)(=O)[O-])c3ccc(=[N+](CC)CC)cc-3oc2c1 [Sulforhodamine, sulforhodamine B]
skin permeability, fluorescence in receptor compartment [3]: increase in skin permeability

O=C1OC2(c3ccc(O)cc3Oc3cc(O)ccc32)c2ccccc21 [fluorescein]
skin permeability, fluorescence in receptor compartment [3]: increase in skin permeability

O=C(O)CO [glycololic acid, glycolic acid]
epidermal or dermal injury ([4]; 20% for 1-3 minutes): epidermal damage and clefting of the dermal-epidermal junction (DEJ) | injury by chemical peeling [4]: uncontrolled or unavoidable additional injury to epidermis

O=C(O)c1ccccc1O [salicylic acid]
injury by chemical peeling [4]: uncontrolled or unavoidable additional injury to epidermis | epidermal or dermal injury ([4]; topical 30%): damage to the epidermis

human recombinant insulin: FITC tagged human recombinant insulin (5000 Da)
skin permeability after removal of S.C. by ETA [1]: substantially increased | time to penetration of the dye ([1]; toxin treated skin): ≤ 6 h | penetration of the dye at 12 hours ([1]; toxin treated skin): some dye penetration | penetration of the dye at 24 hours ([1]; toxin treated skin): extensively into the dermis | penetration of the dye at 24 hours ([1]; toxin treated skin, listed as FITC-insulin): deep penetration of the dye

B1: ETA: protease that cleaves the extracellular portion of desmoglein-1 (Dsg1); Staphylococcus aureus, SEQ ID NO: 01/02 (protein, listed as Staphylococcus aureus)
chain: MNNSKIISKVLLSLSLFTVGASAFVIQDELMQKNHAKAEVSAEEIKKHEEKWNKYYGVNAFNLPKELFSKVDEKDRQKYPYNTIGNVFVKGQTSATGVLIGKNTVLTNRHIAKFANGDPSKVSFRPSINTDDNGNTETPYGEYEVKEILQEPFGAGVDLALIRLKPDQNGVSLGDKISPAKIGTSNDLKDGDKLELIGYPFDHKVNQMHRSEIELTTLSRGLRYYGFTSVPGNSGSGIFNSNGELVGIHSSKVSHLDREHQINYGVGIGNY
epidermal or dermal injury ([4]; controlled removal of S.C. using ETA): no epidermal or dermal injury | incubation usually expected ([5]; ETA 50 μg/mL, without pre-treatment): 4 to 8 h | area stained by DAPI (FIG. 7 panel d) ([5]; ETA and thioglycolate cream): 90%-95% | area stained by DAPI (FIG. 7 panel b) ([5]; ETA only): 20%-30% | change of reaction time after ETA application ([5]; acetone pre-treatment): slight decrease in reaction time | time at which separation of S.C. started ([5]; pre-treatment of acetone and a thioglycolate cream): 2 to 2.5 h | time of almost complete removal of S.C. ([5]; pre-treatment of acetone and a thioglycolate cream, ETA 50 μg/mL): 3 h | change of incubation time of ETA ([5]; thioglycolate cream pre-treatment): shortened | DAPI staining of nuclei ([6]; Day 12 after ETA): no nuclei | DAPI staining of nuclei ([6]; Days 1-3 after ETA): significant DAPI staining | time to completed healing of removed S.C. ([6]; after ETA-mediated desquamation): ≤ 2 weeks | re-formation of intact Stratum Corneum complete ([6]; after application of ETA): ≤ 15 days | damage to the epidermis or underlying dermis [7, 9]: no serious damage | exfoliation [7, 9]: more wide spread exfoliation | histological effect ([7]; intradermal injection, ETA 5 μg/mL, 24 hours): desquamation | histological effect ([7]; intradermal injection, ETA 50 μg/mL, 24 hours): desquamation | histological effect ([7]; intradermal injection, ETA 500 μg/mL, 24 hours): clefting at the dermal-epidermal junction (DEJ) | histological effect ([7]; intradermal injection, ETA 1000 μg/mL, 24 hours): clefting at the dermal-epidermal junction (DEJ) | effect compared with intra-dermal injection ([7]; topical ETA 50 μg/mL for 24 hours): much more modest effect | histological effect ([7]; topical application, ETA 5 μg/mL, 24 hours): no change | histological effect ([7]; topical application, ETA 50 μg/mL, 24 hours): desquamation | histological effect ([7]; topical application, ETA 500 μg/mL, 24 hours): desquamation | histological effect ([7]; topical application, ETA 1000 μg/mL, 24 hours): desquamation | effect of buffer on desquamation speed ([8]; 10 mM Tris buffer pH 8.0): no effect | time to remove the S.C. ([8]; ETA 50 μg/mL): ≤ 12 h | S.C. removal, histology (FIG. 1 panel d) ([8]; ETA 50 μg/mL, serial time points up to 12 hours): sub-corneal cleavage and the complete removal of the S.C. | incubation time at which efficacy was achieved ([8]; ETA 1000 μg/mL, buffered pH 6.5 solution): about 3 hours | time to desquamation of the Stratum Corneum ([8]; ETA between 5 and 25 μg/mL, topical): ≤ 24 h | damage to the rest of the epidermis or the dermis ([8]; ETA between 5 and 25 μg/mL, within 24 hours): without damaging the rest of the epidermis or the dermis | time to completely remove the S.C. ([8]; pH 6.5): 4 h | desquamation (FIG. 2 panel d) ([8]; pH 6.5 PIPES buffer, 4 hours): total desquamation | desquamation (FIG. 2 panel b) ([8]; pH 7.4 HEPES buffer, 4 hours): some desquamation
